{"source": "IntAct's records for PubMed 19513235", "parents": {"B1": {"name": "Mitogen-activated protein kinase kinase 2 (Arabidopsis thaliana (Mouse-ear cress)), Q9S7U9 (parent)", "chain": "MKKGGFSNNLKLAIPVAGEQSITKFLTQSGTFKDGDLRVNKDGVRIISQLEPEVLSPIKPADDQLSLSDLDMVKVIGKGSSGVVQLVQHKWTGQFFALKVIQLNIDEAIRKAIAQELKINQSSQCPNLVTSYQSFYDNGAISLILEYMDGGSLADFLKSVKAIPDSYLSAIFRQVLQGLIYLHHDRHIIHRDLKPSNLLINHRGEVKITDFGVSTVMTNTAGLANTFVGTYNYMSPERIVGNKYGNKSDIWSLGLVVLECATGKFPYAPPNQEETWTSVFELMEAIVDQPPPALPSGNFSPELSSFISTCLQKDPNSRSSAKELMEHPFLNKYDYSGINLASYFTDAGSPLATLGNLSGTFSV"}, "B2": {"name": "Mitogen-activated protein kinase kinase 1 (Arabidopsis thaliana (Mouse-ear cress)), Q94A06 (parent)", "chain": "MNRGSLCPNPICLPPLEQSISKFLTQSGTFKDGDLRVNKDGIQTVSLSEPGAPPPIEPLDNQLSLADLEVIKVIGKGSSGNVQLVKHKLTQQFFALKVIQLNTEESTCRAISQELRINLSSQCPYLVSCYQSFYHNGLVSIILEFMDGGSLADLLKKVGKVPENMLSAICKRVLRGLCYIHHERRIIHRDLKPSNLLINHRGEVKITDFGVSKILTSTSSLANSFVGTYPYMSPERISGSLYSNKSDIWSLGLVLLECATGKFPYTPPEHKKGWSSVYELVDAIVENPPPCAPSNLFSPEFCSFISQCVQKDPRDRKSAKELLEHKFVKMFEDSDTNLSAYFTDAGSLIPPLAN", "partner": "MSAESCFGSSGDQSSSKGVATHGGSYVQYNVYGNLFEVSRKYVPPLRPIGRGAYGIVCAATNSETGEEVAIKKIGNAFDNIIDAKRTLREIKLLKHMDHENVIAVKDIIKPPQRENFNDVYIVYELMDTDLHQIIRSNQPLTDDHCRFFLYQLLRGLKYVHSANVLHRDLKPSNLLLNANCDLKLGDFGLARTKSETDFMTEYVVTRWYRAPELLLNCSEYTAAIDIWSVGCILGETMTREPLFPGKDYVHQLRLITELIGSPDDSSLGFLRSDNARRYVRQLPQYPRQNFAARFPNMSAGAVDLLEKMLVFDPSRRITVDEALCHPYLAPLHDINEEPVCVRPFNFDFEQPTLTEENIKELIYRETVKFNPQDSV"}, "B3": {"name": "Mitogen-activated protein kinase kinase 9 (Arabidopsis thaliana (Mouse-ear cress)), Q9FX43 (parent)", "chain": "MALVRERRQLNLRLPLPPISDRRFSTSSSSATTTTVAGCNGISACDLEKLNVLGCGNGGIVYKVRHKTTSEIYALKTVNGDMDPIFTRQLMREMEILRRTDSPYVVKCHGIFEKPVVGEVSILMEYMDGGTLESLRGGVTEQKLAGFAKQILKGLSYLHALKIVHRDIKPANLLLNSKNEVKIADFGVSKILVRSLDSCNSYVGTCAYMSPERFDSESSGGSSDIYAGDIWSFGLMMLELLVGHFPLLPPGQRPDWATLMCAVCFGEPPRAPEGCSEEFRSFVECCLRKDSSKRWTAPQLLAHPFLREDL"}}, "data": [{"variants_of": "B1", "settings": "with mpk6_arath MPK6, Q39026", "values": [{"variant": "MKKGGFSNNLKLAIPVAGEQSITKFLTQSGTFKDGDLRVNKDGVRIISQLEPEVLSPIKPADDQLSLSDLDMVKVIGKGSSGVVQLVQHKWTGQFFALKVIQLNIDEAIRKAIAQELKINQSSQCPNLVTSYQSFYDNGAISLILEYMDGGSLADFLKSVKAIPDSYLSAIFRQVLQGLIYLHHDRHIIHRDLKPSNLLINHRGEVKITDFGVSTVMTNTAGLANEFVGTYNYMSPERIVGNKYGNKSDIWSLGLVVLECATGKFPYAPPNQEETWTSVFELMEAIVDQPPPALPSGNFSPELSSFISTCLQKDPNSRSSAKELMEHPFLNKYDYSGINLASYFTDAGSPLATLGNLSGTFSV", "note": "[T226E]", "effect of a mutation on the interaction": "increasing interaction"}]}, {"variants_of": "B1", "settings": "with mpk10_arath MPK10, Q9M1Z5", "values": [{"variant": "MKKGGFSNNLKLAIPVAGEQSITKFLTQSGTFKDGDLRVNKDGVRIISQLEPEVLSPIKPADDQLSLSDLDMVKVIGKGSSGVVQLVQHKWTGQFFALKVIQLNIDEAIRKAIAQELKINQSSQCPNLVTSYQSFYDNGAISLILEYMDGGSLADFLKSVKAIPDSYLSAIFRQVLQGLIYLHHDRHIIHRDLKPSNLLINHRGEVKITDFGVSTVMTNTAGLANEFVGTYNYMSPERIVGNKYGNKSDIWSLGLVVLECATGKFPYAPPNQEETWTSVFELMEAIVDQPPPALPSGNFSPELSSFISTCLQKDPNSRSSAKELMEHPFLNKYDYSGINLASYFTDAGSPLATLGNLSGTFSV", "note": "[T226E]", "effect of a mutation on the interaction": "increasing interaction"}]}, {"variants_of": "B1", "settings": "with mpk13_arath MPK13, Q9LQQ9", "values": [{"variant": "MKKGGFSNNLKLAIPVAGEQSITKFLTQSGTFKDGDLRVNKDGVRIISQLEPEVLSPIKPADDQLSLSDLDMVKVIGKGSSGVVQLVQHKWTGQFFALKVIQLNIDEAIRKAIAQELKINQSSQCPNLVTSYQSFYDNGAISLILEYMDGGSLADFLKSVKAIPDSYLSAIFRQVLQGLIYLHHDRHIIHRDLKPSNLLINHRGEVKITDFGVSTVMTNTAGLANEFVGTYNYMSPERIVGNKYGNKSDIWSLGLVVLECATGKFPYAPPNQEETWTSVFELMEAIVDQPPPALPSGNFSPELSSFISTCLQKDPNSRSSAKELMEHPFLNKYDYSGINLASYFTDAGSPLATLGNLSGTFSV", "note": "[T226E]", "effect of a mutation on the interaction": "increasing interaction"}]}, {"variants_of": "B2", "settings": "with mpk4_arath MPK4, Q39024", "values": [{"variant": "MNRGSLCPNPICLPPLEQSISKFLTQSGTFKDGDLRVNKDGIQTVSLSEPGAPPPIEPLDNQLSLADLEVIKVIGKGSSGNVQLVKHKLTQQFFALKVIQLNTEESTCRAISQELRINLSSQCPYLVSCYQSFYHNGLVSIILEFMDGGSLADLLKKVGKVPENMLSAICKRVLRGLCYIHHERRIIHRDLKPSNLLINHRGEVKITDFGVSKILTSESSLANSFVGTYPYMSPERISGSLYSNKSDIWSLGLVLLECATGKFPYTPPEHKKGWSSVYELVDAIVENPPPCAPSNLFSPEFCSFISQCVQKDPRDRKSAKELLEHKFVKMFEDSDTNLSAYFTDAGSLIPPLAN", "note": "[T218E]", "effect of a mutation on the interaction": "increasing interaction"}, {"variant": "MNRGSLCPNPICLPPLEQSISKFLTQSGTFKDGDLRVNKDGIQTVSLSEPGAPPPIEPLDNQLSLADLEVIKVIGKGSSGNVQLVKHKLTQQFFALKVIQLNTEESTCRAISQELRINLSSQCPYLVSCYQSFYHNGLVSIILEFMDGGSLADLLKKVGKVPENMLSAICKRVLRGLCYIHHERRIIHRDLKPSNLLINHRGEVKITDFGVSKILTSTSSLANDFVGTYPYMSPERISGSLYSNKSDIWSLGLVLLECATGKFPYTPPEHKKGWSSVYELVDAIVENPPPCAPSNLFSPEFCSFISQCVQKDPRDRKSAKELLEHKFVKMFEDSDTNLSAYFTDAGSLIPPLAN", "note": "[S224D]", "effect of a mutation on the interaction": "increasing interaction"}]}, {"variants_of": "B3", "settings": "with mpk6_arath MPK6, Q39026", "values": [{"variant": "MALVRERRQLNLRLPLPPISDRRFSTSSSSATTTTVAGCNGISACDLEKLNVLGCGNGGIVYKVRHKTTSEIYALKTVNGDMDPIFTRQLMREMEILRRTDSPYVVKCHGIFEKPVVGEVSILMEYMDGGTLESLRGGVTEQKLAGFAKQILKGLSYLHALKIVHRDIKPANLLLNSKNEVKIADFGVSKILVRELDSCNSYVGTCAYMSPERFDSESSGGSSDIYAGDIWSFGLMMLELLVGHFPLLPPGQRPDWATLMCAVCFGEPPRAPEGCSEEFRSFVECCLRKDSSKRWTAPQLLAHPFLREDL", "note": "[S195E]", "effect of a mutation on the interaction": "increasing interaction"}]}, {"variants_of": "B3", "settings": "with mpk10_arath MPK10, Q9M1Z5", "values": [{"variant": "MALVRERRQLNLRLPLPPISDRRFSTSSSSATTTTVAGCNGISACDLEKLNVLGCGNGGIVYKVRHKTTSEIYALKTVNGDMDPIFTRQLMREMEILRRTDSPYVVKCHGIFEKPVVGEVSILMEYMDGGTLESLRGGVTEQKLAGFAKQILKGLSYLHALKIVHRDIKPANLLLNSKNEVKIADFGVSKILVRELDSCNSYVGTCAYMSPERFDSESSGGSSDIYAGDIWSFGLMMLELLVGHFPLLPPGQRPDWATLMCAVCFGEPPRAPEGCSEEFRSFVECCLRKDSSKRWTAPQLLAHPFLREDL", "note": "[S195E]", "effect of a mutation on the interaction": "increasing interaction"}]}]}
